In patent publication US9056102B2, “VEGF-activated trail ligands” (The Regents of the University of California, priority 2005, dated 2015):

Legend:
[1] = system: U87MG human glioblastoma cells; experiment: Potentiation of R2FasL by chemotherapeutic agents, LDH release assay; details: 72 hours drug (Bis VIII 1 μM, camptothecin 20 nM, etoposide 5 μM), then R2FasL 10 μL/well for 40 hours
Protocol: To determine if the activity of R2FasL can be potentiated by chemotherapeutic agents, the following experiments were performed. U87MG human glioblastoma cells were plated in 96-well plates in 100 μL of complete medium with 10% fetal calf serum at 25,000 cells/well. Forty-eight hours later cells were treated with either bisindolylmaleimide VIII (Bis VIII, final concentration 1 μM), camptothecin (final concentration 20 nM), etoposide (final concentration 5 μM), or DMSO vehicle (1 μL/well). Bis VIII, camptothecin, and etoposide (all from Biomol) were dissolved in DMSO and added at 1 μL/well. After 72 hours of drug exposure, cells were treated with FLAG antibody affinity-purified R2FasL solution (10 μL/well), and incubated for an additional 40 hours. Cell viability and cytotoxicity were assayed using the resazurin assay and the LDG release assay, respectively, as described above.

[2] = system: U87MG human glioblastoma cells; experiment: Potentiation of R2FasL by chemotherapeutic agents, resazurin cell viability assay; assay type: cell-based; details: 72 hours drug (Bis VIII 1 μM, camptothecin 20 nM, etoposide 5 μM), then R2FasL 10 μL/well for 40 hours
[3] = system: Human umbilical vein endothelial cells (HUVEC); experiment: Macrovascular endothelial cell viability, resazurin assay; assay type: cell-based; details: serum-starved, 10 μL/well conditioned medium, with 2 nM rhVEGF-165, 22 hours
Protocol: R2FasL may be differentially active in tumor endothelial cells (microvascular) and less toxic to normal macrovascular endotherlial cells, such as arteries and veins. […] Twenty-four hours later serum starvation was begun (to sensitize cells to death signals) by withdrawing serum. After fifteen hours of serum starvation cells were treated Cos7 cell conditioned medium containing R2FasL (10 μL/well) in the absence or presence of rh VEGF-165 (final concentration 2 nM). After 22 hours of treatment with R2FasL±rhVEGF cell viability was assayed using the resazurin assay as described herein. No effect of R2FasL+VEGF was seen on these macrovascular endothelial cells (FIG. 20A).

[4] = system: DU145 human prostate cancer cells; experiment: LDH release cytotoxicity assay in prostate cancer cells; assay type: cell-based; details: Cos7 conditioned medium with R2FasL, 34 hours
Protocol: DU145 human prostate cancer cells were plated in 24-well plates in 500 μL of complete medium with 10% fetal calf serum and allowed to grow for 54 hours without change of medium. Conditioned medium from Cos7 cells transfected with either pFLAG/R2FasL or empty pFLAG vector was added in the indicated volumes. After 34 more hours cytotoxicity was assayed using the LDH release assay as described above.

[5] = system: U87MG human glioblastoma cells; experiment: LDH release cytotoxicity assay in glioblastoma cells; assay type: cell-based; details: FLAG-purified R2FasL solution 0-10 μL/well, 24 hours
Protocol: R2FasL solution (0, 0.01, 0.1, 1, or 10 μL), purified by FLAG epitope tag affinity chromatography, was then added to each well (FIG. 17A). In addition, each well received 300 ng of neutralizing anti-VEGF antibody, neutralizing anti-FasL antibody, or control goat Ig (all from R&S Systems). Twenty-four hours later the cells were assayed for cytotoxicity using the LDH release assay (Roche), in which 10 μL of cell supernatant is mixed with 100 μL LDH reaction mixture in a total reaction volume of 200 μL. Cytotoxicity was assayed spectrophotometrically by measuring absorbance at 492 nm.

[6] = system: U373 human glioblastoma cells; experiment: LDH release cytotoxicity assay in Fas-resistant glioblastoma cells; assay type: cell-based; details: Cos7 conditioned medium with R2FasL, 36 hours; cells resistant to Fas receptor-mediated killing
Protocol: To investigate the specificity of the R2FasL activity on U87MG glioblastoma cells, the cytotoxic effect of R2FasL on the U373 glioblastoma cell line, was analyzed. […] Conditioned medium from Cos7 cells transfected with pFLAG/R2FasL vector was added in the indicated volumes. After 36 more hours cytotoxicity was assayed using the LDH release assay as described herein (FIG. 17D).

[7] = system: Bovine adrenal cortical endothelial cells; experiment: Microvascular endothelial cell cytotoxicity, LDH release assay; assay type: cell-based; details: 2 μL/well conditioned medium, with 2 nM rhVEGF-165, 24 hours
Protocol: Twenty-two hours later conditioned medium from Cos7 cells transfected with either pFLAG/R2FasL or empty pFLAG vector was added (2 μL/well), in the absence or presence of rhVEGF-165 (final concentration 2 nM). Twenty-four hours later cytotoxicity was assayed using the LDH release assay as described above.

[8] = system: Jurkat E6.1 human T cells; experiment: Jurkat cell viability, resazurin (AlamarBlue) assay; assay type: cell-based; details: 1 μL/well conditioned medium, rhVEGF-165 or rmVEGF-165 0.001-10 nM, 18 hours
Protocol: Conditioned medium (0.001, 0.01, 0.1, 1, or 10 μL) from Cos7 cells transfected with pFLAG/R1[D2]FasL vector was added in the absence or presence of rhVEGF-165 (final concentration 2 nM). Twenty-two hours later cell viability was assayed using the resazurin assay (AlamarBlue reagent from BioSource). Conversion of AlamarBlue substrate to product by viable cells was determined by adding 20 μL of AlamarBlue to each well and measuring absorbance at 540 nm and […]. Calculation of % conversion of substrate to product was performed according to the manufacturer's protocol.
To investigate which growth factors activate R1[D2]FasL the following experiment was performed. […] All growth factors were used at a final concentration of 10 nM, and were from Peprotech or R&D Systems. Nineteen hours later cell viability was assayed using the resazurin assay as described above.
In a similar experiment, the concentration of the growth factors tested was varied. […] Conditioned medium from Cos7 cells transfected with either pFLAG/R2FasL vector or empty pFLAG vector was added (1 μL/well), in the absence or presence of rhVEGF-165 or rmVEGF-165 at the final concentrations of 0.001, 0.01, 0.1, 1, and 10 nM. Eighteen hours later cell viability was assayed using the resazurin assay as described herein.
To determine the ED50 for hVEGF-165 on R1[D2]FasL the following experiment was performed. […] Conditioned medium from Cos7 cells transfected with pFLAG/R1[D2]FasL vector was added (2 μL/well), in the absence or presence of rhVEGF-165 at 0, 0.01, 0.1, 1, 10, 100, 1,000, or 10,000 nM. Nineteen hours later cell viability was assayed using the resazurin assay as described above.
In a similar experiment the ED50 for hVEGF-165 on R2FasL was determined. […] Conditioned medium from Cos7 cells transfected with pFLAG/R2FasL vector was added in the volumes indicated, in the absence or presence of rhVEGF-165 at the final concentrations of […], 0.2 and 2 nM. Eighteen hours later cell viability was assayed using the resazurin assay. The ED50 for rhVEGF-165 was between 20 pM and 200 pM (FIG. 21B).

[9] = system: U87MG human glioblastoma cells; experiment: Cell death in glioblastoma cells, Trypan blue cell counting; assay type: cell-based; details: Cos7 conditioned medium with R2FasL, 36 hours
Protocol: To investigate if R2FasL induces apoptosis in human glioblastoma the following experiment was performed. […] Twenty-four hours later conditioned medium from Cos7 cells transfected with either pFLAG/R2FasL or empty pFLAG vector was added (FIG. 17B). The concentration of R2FasL was determined separately by quantitative immunoblotting using commercially produced rhsFasL as standard (R&S Systems). After 36 more hours, cells were trypsinized, stained with Trypan blue, and counted on a hemocytometer. Data in FIG. 17B are shown as mean±SEM.

CC[C@@]1(O)C(=O)OCc2c1cc1n(c2=O)Cc2cc3ccccc3nc2-1 [camptothecin]
potentiation of R2FasL cytotoxic activity (LDH release) [1]: Potentiation of R2FasL cytotoxic activity | potentiation of R2FasL apoptotic activity (cell viability) [2]: Potentiation of R2FasL apoptotic activity

B1: R2FasL: FLAG epitope-tagged VEGFR2/FasL fusion protein expressed from pFLAG/R2FasL; apparently the FLAG-tagged form of FlkFasL (protein)
chain: AASVGLPGDFLHPPKLSTQKDILTILANTTLQITCRGQRDLDWLWPNAQRDSEERVLVTECGGGDSIFCKTLTIPRVVGNDTGAYKCSYRDVDIASTVYVYVRDYRSPFIASVSDQHGIVYITENKNKTVVIPCRGSISNLNVSLCARYPEKRFVPDGNRISWDSEIGFTLPSYMISYAGMVFCEAKINDETYQSIMYIVVVVGYRIYDVILSPPHEIELSAGEKLVLNCTARTELNVGLDFTWHSPPSKSHHKKIVNRDVKPFPGTVAKMFLSTLTIESVTKSDQGEYTCVASSGRMIKRNRTFVRVHTKPFIAFGSARGTSEKKELRKVAHLTGKSNSRSMPLEWEDTYGIVLLSGVKYKKGGLVINETGLYFVYSKVYFRGQSCNNLPLSHKVYMRNSKYPQDLVMMEGKMMSYCTTGQMWARSSYLGAVFNLTSADHLYVNVSELSLVNFEESQTFFGLYKL
modifications: left off: small tags and cut ends
notes: apparently the FLAG-tagged form of FlkFasL
effect of R2FasL+VEGF on cell viability [3]: No effect | cytotoxicity (LDH release) [4]: induces cytotoxicity | cytotoxicity (LDH release) [5]: induces cytotoxicity | cytotoxicity (LDH release) [6]: does not induce cytotoxicity | cytotoxicity (LDH release) of R2FasL and VEGF [7]: induce cytotoxicity | activation by human and mouse VEGF-165 (cell viability) [8]: human and mouse VEGF-165 similarly activate R2FasL | cell death (cell count) [9]: induces cell death
